The values that follow come from patent publication US20230242654A1, “REAGENTS FOR EXPANDING CELLS EXPRESSING RECOMBINANT RECEPTORS” (Juno Therapeutics, Inc., priority 2017, published 2023).

Data set [1] concerns T cells transduced with anti-CD19 CAR having an scFv derived from FMC63. Description: Stimulation of T cells cultured with anti-idiotype antibody-conjugated beads up to 14 days. It is filed as cell-based, human. As for the experimental part:
The FMC63-derived scFv-specific anti-ID B-1-conjugated beads were incubated with T cells. CD3-purified T cells were isolated by immunoaffinity-based enrichment from leukapheresis samples from healthy donors. Isolated cells were transduced with a viral vector encoding an anti-CD19 CAR having an scFv derived from FMC63. The viral vector construct further encoded a truncated EGFR (EGFRt), which served as a surrogate marker for CAR expression; the EGFRt-coding region was separated from the CAR sequence by a T2A skip sequence. After transductions, cells were expanded in culture and frozen by cryopreservation.
For T cells stimulation studies, thawed CD4+ or CD8+ CAR-expressing cells were separately seeded at approximately 50,000 total cells per well. In some cases, the culture media was additionally supplemented with cytokines as follows: for CD4+ cells, approximately 1200 IU/mL recombinant IL-7, 20 IU/mL recombinant IL-15 and 100 IU/mL recombinant IL-2; for CD8+ cells, approximately 200 IU/mL recombinant IL-2 and 20 IU/mL recombinant IL-15. Anti-ID B-1 conjugated beads were added to cells at a 1:1 or 1:5 cell:bead ratio and incubated up to 14 days with a 50% media exchange every 2-3 days. As a positive control, cells were cultured with anti-CD3/anti-CD28 magnetic beads at a 3:1 cell:bead ratio in the presence or absence of the indicated cytokines.
At various times of culture, CD4+ or CD8+ transduced cells (as detected by anti-EGFR for expression of the surrogate marker) were assessed for expansion, PD-1 expression and viability.

For data set [2], the system named is CD4+ or CD8+ CAR-expressing T cells. Description: Expansion after serial restimulation, 4 rounds in 14 days. It is filed as cell-based, human. As for the experimental part: The ability of cells to expand ex vivo following repeated stimulations may be a potential surrogate for capacity of CAR+ T cells to persist (e.g. following initial activation) and/or is indicative of function in vivo (Zhao et al. (2015) Cancer Cell, 28:415-28). CAR+ T cells were generated as described above and thawed CD4+ or CD8+ CAR-expressing T cells were plated separately at 50,000 CAR+ cells/well. Anti-ID B-1 conjugated beads were added to cells at a 1:1 or 1:5 cell:bead ratio in the presence or absence of cytokines as described in Example 10. As a control, anti-CD3/anti-CD28 magnetic beads were added to cells at a 3:1 cell:bead ratio in the presence or absence of the cytokines. Cells were harvested every 3-4 days and counted, and restimulated with new […] using the same culture conditions after resetting cell number to initial seeding density for each round. A total of 4 rounds of stimulation during a 14 day culture period were carried out. For each round of stimulation, the number of doublings was determined.

The nature of data set [3]: Stability of antibody conjugated beads (supernatant SDS-PAGE, Coomassie blue). Type of data set: physicochemical. As for the experimental part:
To assess stability of the anti-ID conjugated beads, the beads were pelleted, the supernatant was removed and loaded on a 4-12% Bis-Tris SDS-PAGE gel and the gel was stained with Coomassie blue. As a control for total protein conjugated on the beads, the pelleted beads were boiled in 4× (lithium dodecyl sulfate) LDS sample buffer at about 70° C. for 20 minutes and approximately 12.5 μL or 25 μL boiled supernatant also was run on SDS-PAGE gel and assessed by Coomassie blue. Approximately 2.5 μg or 5.0 μg anti-ID antibody that had not been conjugated to the beads (positive control) or 5 μL 0.1% HSA (negative control) also were assessed by SDS-PAGE and Coomassie blue staining.
Stability of the antibody conjugated beads was assessed by pelleting the antibody-conjugated beads, running the resultant supernatant on an 4-12% Bis-Tris gel, and staining the gel for protein with Coomassie blue. As a control for total protein conjugated on the beads, a 10 μL sample of supernatant from pelleted beads that were boiled in LDS sample buffer also was assessed. […] Bands corresponding to the antibodies were detected in the sample with the supernatant from the boiled sample.
Stability of the antibody conjugated beads was assessed by pelleting the antibody-conjugated beads, running the resultant supernatant on an 4-12% Bis-Tris gel, and staining the gel for protein with Coomassie blue. […]

The test system of data set [4] is anti-CD19 CAR-T cell compositions. Description: Long-term (15 day) stimulation with anti-ID conjugated beads of CAR-T compositions made with compounds. It is filed as cell-based, human. As to conditions: 1:1 bead:cell, 15 days, counted every 5 days. As for the experimental part: Engineered T cell compositions containing T cells that express an anti-CD19 CAR were generated from three separate donors in the presence of different compounds or a vehicle control.
The ability of the cells from the different T cell compositions to expand following stimulation of the CAR was assessed by incubating cells of the generated anti-CD19 CAR-T cell compositions with beads surface conjugated with an anti-idiotype antibody specific to the anti-CD19 CAR. The anti-ID conjugated beads were incubated with cells at a 1:1 bead:cell ratio in wells of 24-well G-rex expansion vessels (Argos Technologies) for 15 days. The total live T cells per well was determined by counting cells in the cultures every 5 days (FIG. 25A). The mean area under the curve (AUC) of the function of T cell number over time was calculated relative to the AUC of cells expanded with media only (FIG. 25B).
Secondary cytokine response after stimulation with antigen-expressing cells was assessed on CAR-T cells from the T cell compositions harvested at day 11 following expansion with anti-ID conjugated beads. The anti-ID stimulated cells were incubated with irradiated K562-CD19 target cells at an effector:target ratio of 1:1 for approximately 16 hours. Supernatant was collected and TNF-alpha, IFN-gamma, and IL-2 cytokine production were measured using a Luminex Multiplex Assay. […]

B1: anti-ID conjugated beads: FMC63-derived scFv-specific anti-idiotype antibody (B-1 in Examples 10-14) covalently coupled to tosyl-activated magnetic beads (conjugate)
heavy: EVQLQQSGPELVKPGASVKMSCKASGYTFTDYYMKWVKQCHGKSLEWIGDINPNNGGTDYNQNFKGKATLTVDKSSSTAYMQLNSLTSEDSAVYYCAREGNNYGSRDAMDYWGQGTSVTVSSAKTTAPSVYPLAPVCGDTTGSSVTLGCLVKGYFPEPVTLTWNSGSLSSGVHTFPAVLQSDLYTLSSSVTVTSSTWPSQSITCNVAHPASSTKVDKKIEPRGPTIKPCPPCKCPAPNLLGGPSVFIFPPKIKDVLMISLSPIVTCVVVDVSEDDPDVQISWFVNNVEVHTAQTQTHREDYNSTLRVVSALPIQHQDWMSGKEFKCKVNNKDLPAPIERTISKPKGSVRAPQVYVLPPPEEEMTKKQVTLTCMVTDFMPEDIYVEWTNNGKTELNYKNTEPVLDSDGSYFMYSKLRVEKKNWVERNSYSCSVVHEGLHNHHTTKSFSRTPGK
light: QIVLTQSPALMSASPGEKVTMTCSASSGVIYMYWYQQKPRSSPKPWIYLTSNLASGVPARFSGSGSGTSYSLTISSMEAEDAATYYCQQWSSNPLTFGAGTKLELKRADAAPTVSIFPPSSEQLTSGGASVVCFLNNFYPKDINVKWKIDGSERQNGVLNSWTDQDSKDSTYSMSSTLTLTKDEYERHNSYTCEATHKTSTSPIVKSFNRNEC
As to B1, the “extent of expansion of CD4+ and CD8+ T cells” value in data set [1] (1:1 or 1:5 cell:bead, versus control anti-CD3/anti-CD28 magnetic beads) was “The extent of expansion was greater”. For the same molecule, the “percent viability of CD4+ and CD8+ T cells” value in data set [1] (cultured in the presence of cytokines) is reported as “remained consistently high”. The “surface expression of PD-1 on the CD4+ cell subset” value in data set [1] (days 3, 7, 10 and 14) was “substantially lower or undetectable”. Also, in data set [2] (1:1 or 1:5 cell:bead, 4 rounds), the “expansion of CAR-expressing (EGFRt+) CD4+ cells after restimulation” value is recorded as “continued cell expansion”. For the same molecule, in data set [2] (versus anti-CD3/anti-CD28 beads), the “extent of expansion of CD4+ cells” value is reported as “the extent of expansion was greater”. The “expansion of CD8+ T cells” value in data set [2] (versus anti-CD3/anti-CD28 beads, particularly without recombinant cytokines) is “expansion was somewhat greater”. In addition, the “stability of the conjugation” value in data set [3] was “the conjugation was stable”. The “total live T cells per well” value in data set [4] was “initial expansion that was followed by a decline in cell number”.
